This passage reports percent decrease in binding compared to wild-type RIG-I results from PMC11111093.

The target of the experiment is HA-ADAP (UniProt O15117). Nature of the experiment: co-IP; HEK293T co-transfected with HA-ADAP and Flag-RIG-I or Flag-tagged RIG-I truncations, lysates 48 h after transfection; anti-HA immunoprecipitation, anti-Flag blot.
Chain of UniProt O15117 (O15117 whole entry, the tested form may be a part): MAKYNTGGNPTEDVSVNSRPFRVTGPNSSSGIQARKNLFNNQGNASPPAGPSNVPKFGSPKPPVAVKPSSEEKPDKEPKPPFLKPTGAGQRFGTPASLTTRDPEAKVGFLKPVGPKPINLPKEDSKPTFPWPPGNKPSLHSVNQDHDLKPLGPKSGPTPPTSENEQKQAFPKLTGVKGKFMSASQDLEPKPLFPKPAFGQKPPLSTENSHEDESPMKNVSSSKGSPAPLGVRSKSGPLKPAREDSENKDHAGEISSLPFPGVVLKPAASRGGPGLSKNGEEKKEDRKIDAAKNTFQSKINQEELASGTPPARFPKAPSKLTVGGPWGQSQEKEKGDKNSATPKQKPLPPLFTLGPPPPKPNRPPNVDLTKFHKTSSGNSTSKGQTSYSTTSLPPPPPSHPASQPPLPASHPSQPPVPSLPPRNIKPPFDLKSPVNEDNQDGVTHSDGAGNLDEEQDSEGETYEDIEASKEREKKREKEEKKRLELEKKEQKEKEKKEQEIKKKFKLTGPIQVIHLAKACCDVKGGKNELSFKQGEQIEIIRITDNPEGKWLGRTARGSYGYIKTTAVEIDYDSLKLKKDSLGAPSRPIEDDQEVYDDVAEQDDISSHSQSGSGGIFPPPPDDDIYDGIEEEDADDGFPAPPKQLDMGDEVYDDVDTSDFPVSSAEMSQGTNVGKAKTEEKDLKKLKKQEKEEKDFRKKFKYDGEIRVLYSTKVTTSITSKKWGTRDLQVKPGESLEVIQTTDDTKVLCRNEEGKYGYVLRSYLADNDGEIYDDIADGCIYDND

“Flag-RIG-I helicase domain (aa 239-734) (from UniProt O95786 239-734) (domain or fragment)” returned a percent decrease in binding compared to wild-type RIG-I of 60%.
